The results in this text go back to paper PMC2173746.

This assay addresses LSm7 (UniProt Q9UK45). In words: two-hybrid.
Sequence of UniProt Q9UK45 (Q9UK45 whole entry): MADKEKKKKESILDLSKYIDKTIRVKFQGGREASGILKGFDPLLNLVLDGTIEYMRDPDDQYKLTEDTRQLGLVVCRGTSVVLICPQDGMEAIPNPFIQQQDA

For “SART3/p110 with the CT10 domain deleted (from UniProt Q15020 1-950) (domain or fragment)”, the fold reduction of the two-hybrid interaction against full-length SART3/p110 was determined as 2 fold.
